Reference: paper PMC9482650, “Quantitative fragmentomics allow affinity mapping of interactomes” (Nature Communications, 2022)

Tests used:
Test in all cases: holdup assay
Parameters in all cases: key: below the threshold = too weak to quantify, mostly under pKd 3.1 to 4
[1] = target: T1, APBA2_1, Q99767
T1 sequence (Q99767 563-664, limits assumed, looked up): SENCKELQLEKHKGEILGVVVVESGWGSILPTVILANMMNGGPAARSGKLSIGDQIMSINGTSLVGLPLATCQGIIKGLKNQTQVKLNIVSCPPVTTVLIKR

[2] = target: T2, DFNB31_3, Q9P202
T2 sequence (Q9P202 811-907, limits assumed, looked up): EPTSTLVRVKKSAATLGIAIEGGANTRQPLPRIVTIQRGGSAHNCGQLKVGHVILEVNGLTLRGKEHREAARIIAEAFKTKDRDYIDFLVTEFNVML

[3] = target: DLG1_3, Q12959
Sequence of DLG1_3, Q12959 (Q12959 457-571): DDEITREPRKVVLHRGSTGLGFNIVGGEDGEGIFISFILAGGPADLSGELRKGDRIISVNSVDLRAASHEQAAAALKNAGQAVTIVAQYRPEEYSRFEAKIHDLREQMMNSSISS

[4] = target: DLG2_2, Q15700; conditions: plain residues with an end cap or a label only (N-terminal biotin on a linker: ttds)
Sequence of DLG2_2, Q15700 (Q15700 189-283): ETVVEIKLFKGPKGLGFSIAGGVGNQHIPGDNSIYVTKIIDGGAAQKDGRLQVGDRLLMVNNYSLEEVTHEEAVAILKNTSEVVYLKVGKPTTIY

[5] = target: T3, DLG3_3, Q92796
T3 sequence (Q92796 374-475, limits assumed, looked up): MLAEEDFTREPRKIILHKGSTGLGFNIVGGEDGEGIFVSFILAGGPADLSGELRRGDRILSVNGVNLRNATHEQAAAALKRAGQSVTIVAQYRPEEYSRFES

[6] = target: DLG4_1, P78352
Sequence of DLG4_1, P78352 (P78352 62-152): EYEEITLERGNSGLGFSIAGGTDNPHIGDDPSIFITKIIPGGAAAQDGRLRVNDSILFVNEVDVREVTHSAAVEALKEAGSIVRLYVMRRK

[7] = target: DLG4_2, P78352
Sequence of DLG4_2, P78352 (P78352 155-259): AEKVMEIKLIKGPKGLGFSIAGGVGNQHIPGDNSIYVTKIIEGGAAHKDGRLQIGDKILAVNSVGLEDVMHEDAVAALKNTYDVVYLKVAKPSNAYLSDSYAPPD

[8] = target: DLG4_3, P78352
Sequence of DLG4_3, P78352 (P78352 306-403): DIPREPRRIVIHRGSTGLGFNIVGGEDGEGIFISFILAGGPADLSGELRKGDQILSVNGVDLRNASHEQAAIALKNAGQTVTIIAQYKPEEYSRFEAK

[9] = target: FRMPD2_1, Q68DX3
Sequence of FRMPD2_1, Q68DX3 (Q68DX3 770-861): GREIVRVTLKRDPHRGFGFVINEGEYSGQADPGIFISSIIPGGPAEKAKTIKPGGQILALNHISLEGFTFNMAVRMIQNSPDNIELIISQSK

[10] = target: FRMPD4, Q14CM0
Sequence of FRMPD4, Q14CM0 (Q14CM0 67-160): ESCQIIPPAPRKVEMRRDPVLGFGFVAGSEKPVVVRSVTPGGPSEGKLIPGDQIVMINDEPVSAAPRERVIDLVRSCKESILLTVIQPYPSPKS

[11] = target: GOPC, Q9HD26
[12] = target: GORASP2, Q9H8Y8
[13] = target: T4, GRIP1_7, Q9Y3R0
T4 sequence (Q9Y3R0 999-1096, limits assumed, looked up): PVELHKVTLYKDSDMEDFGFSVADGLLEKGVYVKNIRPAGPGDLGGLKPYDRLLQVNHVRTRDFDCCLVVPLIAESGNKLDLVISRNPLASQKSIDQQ

[14] = target: GRIP2_3, Q9C0E4
Sequence of GRIP2_3, Q9C0E4 (Q9C0E4 238-339): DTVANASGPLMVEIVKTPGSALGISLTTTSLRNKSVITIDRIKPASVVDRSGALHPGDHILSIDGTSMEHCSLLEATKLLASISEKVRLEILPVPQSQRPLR

[15] = target: T5, HTRA4, P83105
T5 sequence (P83105 378-476, limits assumed, looked up): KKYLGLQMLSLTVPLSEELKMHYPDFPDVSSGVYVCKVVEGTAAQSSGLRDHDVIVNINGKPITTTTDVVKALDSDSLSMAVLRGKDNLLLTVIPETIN

[16] = target: Inadl_2, Q8NI35
Sequence of Inadl_2, Q8NI35 (Q8NI35 238-335): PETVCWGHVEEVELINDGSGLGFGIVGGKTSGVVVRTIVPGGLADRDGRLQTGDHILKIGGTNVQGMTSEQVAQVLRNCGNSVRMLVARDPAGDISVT

[17] = target: Inadl_8, Q8NI35
Sequence of Inadl_8, Q8NI35 (Q8NI35 1425-1530): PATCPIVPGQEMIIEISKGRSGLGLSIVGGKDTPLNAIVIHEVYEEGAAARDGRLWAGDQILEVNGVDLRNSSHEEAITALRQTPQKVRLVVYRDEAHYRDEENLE

[18] = target: LIMK2, P53671
Sequence of LIMK2, P53671 (P53671 143-248): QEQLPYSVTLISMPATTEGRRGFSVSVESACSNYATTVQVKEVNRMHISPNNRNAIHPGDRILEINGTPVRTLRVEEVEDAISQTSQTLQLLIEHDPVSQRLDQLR

[19] = target: LNX1_1, Q8TBB1; conditions: plain residues with an end cap or a label only (N-terminal biotin on a linker: ttds)
Sequence of LNX1_1, Q8TBB1 (Q8TBB1 261-371): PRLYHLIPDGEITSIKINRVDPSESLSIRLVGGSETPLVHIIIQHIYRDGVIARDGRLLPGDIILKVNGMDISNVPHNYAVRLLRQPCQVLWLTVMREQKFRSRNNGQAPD

[20] = target: LNX1_3, Q8TBB1
Sequence of LNX1_3, Q8TBB1 (Q8TBB1 500-596): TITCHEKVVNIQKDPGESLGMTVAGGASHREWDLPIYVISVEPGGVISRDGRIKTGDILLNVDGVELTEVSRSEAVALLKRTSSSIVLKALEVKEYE

[21] = target: MAGI2_3, Q86UL8
Sequence of MAGI2_3, Q86UL8 (Q86UL8 600-682): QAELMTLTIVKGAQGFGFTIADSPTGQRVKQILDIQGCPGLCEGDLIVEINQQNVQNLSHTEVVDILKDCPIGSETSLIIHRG

[22] = target: MAGI2_5, Q86UL8; conditions: plain residues with an end cap or a label only (N-terminal biotin on a linker: ttds)
Sequence of MAGI2_5, Q86UL8 (Q86UL8 915-1017): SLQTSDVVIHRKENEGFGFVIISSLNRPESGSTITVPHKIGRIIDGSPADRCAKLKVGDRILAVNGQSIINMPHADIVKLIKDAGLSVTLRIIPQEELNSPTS

[23] = target: MAST2, Q6P0Q8
Sequence of MAST2, Q6P0Q8 (Q6P0Q8 1099-1202): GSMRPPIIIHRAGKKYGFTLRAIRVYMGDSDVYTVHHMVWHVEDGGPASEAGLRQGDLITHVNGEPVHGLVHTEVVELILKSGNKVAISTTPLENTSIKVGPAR

[24] = target: T6, NHERF3_1, Q5T2W1
T6 sequence (Q5T2W1 4-100, limits assumed, looked up): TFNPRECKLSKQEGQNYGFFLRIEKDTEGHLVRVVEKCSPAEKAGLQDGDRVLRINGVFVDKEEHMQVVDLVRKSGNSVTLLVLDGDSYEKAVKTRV

[25] = target: NHERF4_1, Q86UT5-2
Sequence of NHERF4_1, Q86UT5-2 (Q86UT5 other isoform, or with tags, fused parts or gaps): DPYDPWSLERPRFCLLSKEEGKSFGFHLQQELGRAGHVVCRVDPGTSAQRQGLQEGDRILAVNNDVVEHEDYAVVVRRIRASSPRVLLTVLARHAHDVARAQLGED

[26] = target: NHERF4_4, Q86UT5
Sequence of NHERF4_4, Q86UT5 (Q86UT5 464-550): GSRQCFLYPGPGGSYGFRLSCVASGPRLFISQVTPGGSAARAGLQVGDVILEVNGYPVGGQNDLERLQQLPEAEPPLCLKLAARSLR

[27] = target: T7, PDZD2_2, O15018
T7 sequence (O15018 329-429, limits assumed, looked up): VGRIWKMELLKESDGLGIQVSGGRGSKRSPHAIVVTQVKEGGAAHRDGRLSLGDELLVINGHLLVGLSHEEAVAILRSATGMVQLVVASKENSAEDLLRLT

[28] = target: SCRIB_1, Q14160
Sequence of SCRIB_1, Q14160 (Q14160 718-814): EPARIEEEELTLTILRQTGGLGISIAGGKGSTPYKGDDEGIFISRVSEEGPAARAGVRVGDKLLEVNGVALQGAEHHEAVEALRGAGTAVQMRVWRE

[29] = target: SCRIB_2, Q14160
Sequence of SCRIB_2, Q14160 (Q14160 857-960): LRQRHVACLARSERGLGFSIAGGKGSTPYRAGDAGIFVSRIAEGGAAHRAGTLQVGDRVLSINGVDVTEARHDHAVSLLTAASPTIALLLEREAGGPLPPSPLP

[30] = target: SNX27, Q96L92
[31] = target: T8, TJP3_3, O95049
T8 sequence (O95049 375-456, limits assumed, looked up): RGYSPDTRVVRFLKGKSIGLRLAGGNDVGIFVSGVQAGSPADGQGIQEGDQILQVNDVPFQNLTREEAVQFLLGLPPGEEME

[32] = plain residues with an end cap or a label only (N-terminal biotin on a linker: ttds)
[33] = plain residues with an end cap or a label only (N-terminal biotin on a linker: ahx)

Which results are given for CLDTSRETDL [KCNA5, P22460]?
pKd [1, 32]: below the threshold; pKd [2, 32]: below the threshold; pKd [3, 32]: 3.57; pKd [4]: 4.19; pKd [5, 32]: below the threshold; pKd [6, 32]: 3.84; pKd [7, 32]: 4.43; pKd [8, 32]: below the threshold; pKd [9, 32]: below the threshold; pKd [10, 32]: 3.49; pKd [11, 32]: below the threshold; pKd [12, 32]: 3.58; pKd [13, 32]: below the threshold; pKd [14, 32]: below the threshold; pKd [15, 32]: below the threshold; pKd [16, 32]: below the threshold; pKd [17, 32]: below the threshold; pKd [18, 32]: below the threshold; pKd [19]: 3.91; pKd [20, 32]: below the threshold; pKd [21, 32]: below the threshold; pKd [22]: below the threshold; pKd [23, 32]: 5.52; pKd [24, 32]: 4.43; pKd [25, 32]: below the threshold; pKd [26, 32]: below the threshold; pKd [27, 32]: 3.59; pKd [28, 32]: 4.76; pKd [29, 32]: 4.35; pKd [30, 32]: 4.44; pKd [31, 32]: below the threshold

LCKSHAFSHV [PDLIM7, Q9NR12;Q9NR12-1] was tested. Which pKd [1, 33] did it give?
The pKd was “below the threshold”.

And the pKd [2, 33]?
The pKd was “below the threshold”.

What about the pKd [3, 33] of the same binder?
Its pKd is “below the threshold”.

What about the pKd [5, 33] of the same binder?
Its pKd is “below the threshold”.

What about the pKd [6, 33] of the same binder?
The pKd was “below the threshold”.

And the pKd [7, 33]?
Its pKd is 3.49.

What about the pKd [8, 33] of the same binder?
Its pKd is “below the threshold”.

What about the pKd [9, 33] of the same binder?
The pKd was “below the threshold”.

And the pKd [10, 33]?
Its pKd is “below the threshold”.

What about the pKd [11, 33] of the same binder?
Its pKd is “below the threshold”.

What about the pKd [12, 33] of the same binder?
Its pKd is “below the threshold”.

What about the pKd [13, 33] of the same binder?
Its pKd is “below the threshold”.

And the pKd [14, 33]?
The pKd was “below the threshold”.

What about the pKd [15, 33] of the same binder?
The pKd was “below the threshold”.

What about the pKd [16, 33] of the same binder?
Its pKd is “below the threshold”.

What about the pKd [17, 33] of the same binder?
Its pKd is 4.1.

What about the pKd [18, 33] of the same binder?
Its pKd is “below the threshold”.

And the pKd [20, 33]?
Its pKd is “below the threshold”.

What about the pKd [21, 33] of the same binder?
Its pKd is “below the threshold”.

And the pKd [23, 33]?
Its pKd is 4.21.

And the pKd [24, 33]?
The pKd was “below the threshold”.

What about the pKd [25, 33] of the same binder?
The pKd was “below the threshold”.

What about the pKd [26, 33] of the same binder?
The pKd was “below the threshold”.

What about the pKd [27, 33] of the same binder?
Its pKd is 4.54.

And the pKd [28, 33]?
The pKd was “below the threshold”.

And the pKd [29, 33]?
Its pKd is “below the threshold”.

And the pKd [30, 33]?
Its pKd is “below the threshold”.

And the pKd [31, 33]?
The pKd was “below the threshold”.

TEEEVQDTRL [CFTR, P13569] was tested. Which pKd [1, 32] did it give?
Its pKd is “below the threshold”.

And the pKd [2, 32]?
The pKd was “below the threshold”.

What about the pKd [3, 32] of the same binder?
The pKd was “below the threshold”.

What about the pKd [4] of the same binder?
The pKd was “below the threshold”.

And the pKd [5, 32]?
Its pKd is “below the threshold”.

And the pKd [6, 32]?
Its pKd is “below the threshold”.

And the pKd [7, 32]?
The pKd was “below the threshold”.

What about the pKd [8, 32] of the same binder?
The pKd was “below the threshold”.

And the pKd [9, 32]?
Its pKd is “below the threshold”.

What about the pKd [10, 32] of the same binder?
The pKd was 4.66.

What about the pKd [12, 32] of the same binder?
Its pKd is “below the threshold”.

And the pKd [13, 32]?
Its pKd is 3.74.

And the pKd [14, 32]?
Its pKd is “below the threshold”.

What about the pKd [15, 32] of the same binder?
Its pKd is “below the threshold”.

And the pKd [16, 32]?
Its pKd is “below the threshold”.

What about the pKd [17, 32] of the same binder?
Its pKd is “below the threshold”.

And the pKd [18, 32]?
Its pKd is “below the threshold”.

And the pKd [19]?
Its pKd is “below the threshold”.

And the pKd [20, 32]?
The pKd was “below the threshold”.

And the pKd [21, 32]?
The pKd was “below the threshold”.

What about the pKd [22] of the same binder?
Its pKd is “below the threshold”.

What about the pKd [23, 32] of the same binder?
Its pKd is 5.93.

And the pKd [24, 32]?
The pKd was 4.78.

And the pKd [25, 32]?
The pKd was “below the threshold”.

What about the pKd [26, 32] of the same binder?
Its pKd is “below the threshold”.

What about the pKd [27, 32] of the same binder?
Its pKd is “below the threshold”.

And the pKd [28, 32]?
The pKd was 5.42.

And the pKd [29, 32]?
The pKd was “below the threshold”.

And the pKd [30, 32]?
Its pKd is 5.56.

What about the pKd [31, 32] of the same binder?
The pKd was “below the threshold”.
